Measurements from publication PMC6092189 (Nature structural & molecular biology, 2018).

B1: recombinant human β-cardiac myosin subfragment-1 (short S1, sS1, MYH7 residues 1-808) with C-termina (complex)
chain 1: MGDSEMAVFGAAAPYLRKSEKERLEAQTRPFDLKKDVFVPDDKQEFVKAKIVSREGGKVTAETEYGKTVTVKEDQVMQQNPPKFDKIEDMAMLTFLHEPAVLYNLKDRYGSWMIYTYSGLFCVTVNPYKWLPVYTPEVVAAYRGKKRSEAPPHIFSISDNAYQYMLTDRENQSILITGESGAGKTVNTKRVIQYFAVIAAIGDRSKKDQSPGKGTLEDQIIQANPALEAFGNAKTVRNDNSSRFGKFIRIHFGATGKLASADIETYLLEKSRVIFQLKAERDYHIFYQILSNKKPELLDMLLITNNPYDYAFISQGETTVASIDDAEELMATDNAFDVLGFTSEEKNSMYKLTGAIMHFGNMKFKLKQREEQAEPDGTEEADKSAYLMGLNSADLLKGLCHPRVKVGNEYVTKGQNVQQVIYATGALAKAVYERMFNWMVTRINATLETKQPRQYFIGVLDIAGFEIFDFNSFEQLCINFTNEKLQQFFNHHMFVLEQEEYKKEGIEWTFIDFGMDLQACIDLIEKPMGIMSILEEECMFPKATDMTFKAKLFDNHLGKSANFQKPRNIKGKPEAHFSLIHYAGIVDYNIIGWLQKNKDPLNETVVGLYQKSSLKLLSTLFANYAGADAPIEKGKGKAKKGSSFQTVSALHRENLNKLMTNLRSTHPHFVRCIIPNETKSPGVMDNPLVMHQLRCNGVLEGIRICRKGFPNRILYGDFRQRYRILNPAAIPEGQFIDSRKGAEKLLSSLDIDHNQYKFGHTKVFFKAGLLGLLEEMRDERLSRIITRIQAQSRGVLARMEYKKLLERR
chain 2: not shown
B2: human β-cardiac myosin sS1-eGFP (MYH7 1-808) S532P with essential light chain (complex)
chain 1: MGDSEMAVFGAAAPYLRKSEKERLEAQTRPFDLKKDVFVPDDKQEFVKAKIVSREGGKVTAETEYGKTVTVKEDQVMQQNPPKFDKIEDMAMLTFLHEPAVLYNLKDRYGSWMIYTYSGLFCVTVNPYKWLPVYTPEVVAAYRGKKRSEAPPHIFSISDNAYQYMLTDRENQSILITGESGAGKTVNTKRVIQYFAVIAAIGDRSKKDQSPGKGTLEDQIIQANPALEAFGNAKTVRNDNSSRFGKFIRIHFGATGKLASADIETYLLEKSRVIFQLKAERDYHIFYQILSNKKPELLDMLLITNNPYDYAFISQGETTVASIDDAEELMATDNAFDVLGFTSEEKNSMYKLTGAIMHFGNMKFKLKQREEQAEPDGTEEADKSAYLMGLNSADLLKGLCHPRVKVGNEYVTKGQNVQQVIYATGALAKAVYERMFNWMVTRINATLETKQPRQYFIGVLDIAGFEIFDFNSFEQLCINFTNEKLQQFFNHHMFVLEQEEYKKEGIEWTFIDFGMDLQACIDLIEKPMGIMPILEEECMFPKATDMTFKAKLFDNHLGKSANFQKPRNIKGKPEAHFSLIHYAGIVDYNIIGWLQKNKDPLNETVVGLYQKSSLKLLSTLFANYAGADAPIEKGKGKAKKGSSFQTVSALHRENLNKLMTNLRSTHPHFVRCIIPNETKSPGVMDNPLVMHQLRCNGVLEGIRICRKGFPNRILYGDFRQRYRILNPAAIPEGQFIDSRKGAEKLLSSLDIDHNQYKFGHTKVFFKAGLLGLLEEMRDERLSRIITRIQAQSRGVLARMEYKKLLERR
chain 2: not shown
B3: human β-cardiac myosin sS1-eGFP (MYH7 1-808) R237W with essential light chain (complex)
chain 1: MGDSEMAVFGAAAPYLRKSEKERLEAQTRPFDLKKDVFVPDDKQEFVKAKIVSREGGKVTAETEYGKTVTVKEDQVMQQNPPKFDKIEDMAMLTFLHEPAVLYNLKDRYGSWMIYTYSGLFCVTVNPYKWLPVYTPEVVAAYRGKKRSEAPPHIFSISDNAYQYMLTDRENQSILITGESGAGKTVNTKRVIQYFAVIAAIGDRSKKDQSPGKGTLEDQIIQANPALEAFGNAKTVWNDNSSRFGKFIRIHFGATGKLASADIETYLLEKSRVIFQLKAERDYHIFYQILSNKKPELLDMLLITNNPYDYAFISQGETTVASIDDAEELMATDNAFDVLGFTSEEKNSMYKLTGAIMHFGNMKFKLKQREEQAEPDGTEEADKSAYLMGLNSADLLKGLCHPRVKVGNEYVTKGQNVQQVIYATGALAKAVYERMFNWMVTRINATLETKQPRQYFIGVLDIAGFEIFDFNSFEQLCINFTNEKLQQFFNHHMFVLEQEEYKKEGIEWTFIDFGMDLQACIDLIEKPMGIMSILEEECMFPKATDMTFKAKLFDNHLGKSANFQKPRNIKGKPEAHFSLIHYAGIVDYNIIGWLQKNKDPLNETVVGLYQKSSLKLLSTLFANYAGADAPIEKGKGKAKKGSSFQTVSALHRENLNKLMTNLRSTHPHFVRCIIPNETKSPGVMDNPLVMHQLRCNGVLEGIRICRKGFPNRILYGDFRQRYRILNPAAIPEGQFIDSRKGAEKLLSSLDIDHNQYKFGHTKVFFKAGLLGLLEEMRDERLSRIITRIQAQSRGVLARMEYKKLLERR
chain 2: not shown
B4: human β-cardiac myosin sS1-eGFP (MYH7 1-808) D239N with essential light chain (complex)
chain 1: MGDSEMAVFGAAAPYLRKSEKERLEAQTRPFDLKKDVFVPDDKQEFVKAKIVSREGGKVTAETEYGKTVTVKEDQVMQQNPPKFDKIEDMAMLTFLHEPAVLYNLKDRYGSWMIYTYSGLFCVTVNPYKWLPVYTPEVVAAYRGKKRSEAPPHIFSISDNAYQYMLTDRENQSILITGESGAGKTVNTKRVIQYFAVIAAIGDRSKKDQSPGKGTLEDQIIQANPALEAFGNAKTVRNNNSSRFGKFIRIHFGATGKLASADIETYLLEKSRVIFQLKAERDYHIFYQILSNKKPELLDMLLITNNPYDYAFISQGETTVASIDDAEELMATDNAFDVLGFTSEEKNSMYKLTGAIMHFGNMKFKLKQREEQAEPDGTEEADKSAYLMGLNSADLLKGLCHPRVKVGNEYVTKGQNVQQVIYATGALAKAVYERMFNWMVTRINATLETKQPRQYFIGVLDIAGFEIFDFNSFEQLCINFTNEKLQQFFNHHMFVLEQEEYKKEGIEWTFIDFGMDLQACIDLIEKPMGIMSILEEECMFPKATDMTFKAKLFDNHLGKSANFQKPRNIKGKPEAHFSLIHYAGIVDYNIIGWLQKNKDPLNETVVGLYQKSSLKLLSTLFANYAGADAPIEKGKGKAKKGSSFQTVSALHRENLNKLMTNLRSTHPHFVRCIIPNETKSPGVMDNPLVMHQLRCNGVLEGIRICRKGFPNRILYGDFRQRYRILNPAAIPEGQFIDSRKGAEKLLSSLDIDHNQYKFGHTKVFFKAGLLGLLEEMRDERLSRIITRIQAQSRGVLARMEYKKLLERR
chain 2: not shown
B5: human β-cardiac myosin sS1-eGFP (MYH7 1-808) A223T with essential light chain (complex)
chain 1: MGDSEMAVFGAAAPYLRKSEKERLEAQTRPFDLKKDVFVPDDKQEFVKAKIVSREGGKVTAETEYGKTVTVKEDQVMQQNPPKFDKIEDMAMLTFLHEPAVLYNLKDRYGSWMIYTYSGLFCVTVNPYKWLPVYTPEVVAAYRGKKRSEAPPHIFSISDNAYQYMLTDRENQSILITGESGAGKTVNTKRVIQYFAVIAAIGDRSKKDQSPGKGTLEDQIIQTNPALEAFGNAKTVRNDNSSRFGKFIRIHFGATGKLASADIETYLLEKSRVIFQLKAERDYHIFYQILSNKKPELLDMLLITNNPYDYAFISQGETTVASIDDAEELMATDNAFDVLGFTSEEKNSMYKLTGAIMHFGNMKFKLKQREEQAEPDGTEEADKSAYLMGLNSADLLKGLCHPRVKVGNEYVTKGQNVQQVIYATGALAKAVYERMFNWMVTRINATLETKQPRQYFIGVLDIAGFEIFDFNSFEQLCINFTNEKLQQFFNHHMFVLEQEEYKKEGIEWTFIDFGMDLQACIDLIEKPMGIMSILEEECMFPKATDMTFKAKLFDNHLGKSANFQKPRNIKGKPEAHFSLIHYAGIVDYNIIGWLQKNKDPLNETVVGLYQKSSLKLLSTLFANYAGADAPIEKGKGKAKKGSSFQTVSALHRENLNKLMTNLRSTHPHFVRCIIPNETKSPGVMDNPLVMHQLRCNGVLEGIRICRKGFPNRILYGDFRQRYRILNPAAIPEGQFIDSRKGAEKLLSSLDIDHNQYKFGHTKVFFKAGLLGLLEEMRDERLSRIITRIQAQSRGVLARMEYKKLLERR
chain 2: not shown
B6: human β-cardiac myosin sS1-eGFP (MYH7 1-808) H251N with essential light chain (complex)
chain 1: MGDSEMAVFGAAAPYLRKSEKERLEAQTRPFDLKKDVFVPDDKQEFVKAKIVSREGGKVTAETEYGKTVTVKEDQVMQQNPPKFDKIEDMAMLTFLHEPAVLYNLKDRYGSWMIYTYSGLFCVTVNPYKWLPVYTPEVVAAYRGKKRSEAPPHIFSISDNAYQYMLTDRENQSILITGESGAGKTVNTKRVIQYFAVIAAIGDRSKKDQSPGKGTLEDQIIQANPALEAFGNAKTVRNDNSSRFGKFIRINFGATGKLASADIETYLLEKSRVIFQLKAERDYHIFYQILSNKKPELLDMLLITNNPYDYAFISQGETTVASIDDAEELMATDNAFDVLGFTSEEKNSMYKLTGAIMHFGNMKFKLKQREEQAEPDGTEEADKSAYLMGLNSADLLKGLCHPRVKVGNEYVTKGQNVQQVIYATGALAKAVYERMFNWMVTRINATLETKQPRQYFIGVLDIAGFEIFDFNSFEQLCINFTNEKLQQFFNHHMFVLEQEEYKKEGIEWTFIDFGMDLQACIDLIEKPMGIMSILEEECMFPKATDMTFKAKLFDNHLGKSANFQKPRNIKGKPEAHFSLIHYAGIVDYNIIGWLQKNKDPLNETVVGLYQKSSLKLLSTLFANYAGADAPIEKGKGKAKKGSSFQTVSALHRENLNKLMTNLRSTHPHFVRCIIPNETKSPGVMDNPLVMHQLRCNGVLEGIRICRKGFPNRILYGDFRQRYRILNPAAIPEGQFIDSRKGAEKLLSSLDIDHNQYKFGHTKVFFKAGLLGLLEEMRDERLSRIITRIQAQSRGVLARMEYKKLLERR
chain 2: not shown

Each binder was assayed against TMR-phalloidin-labelled biotinylated actin filaments (UniProt P68135 1-377, biotin (~1 biotin per monomer)) (assay: optical trap, harmonic force spectroscopy).

In order of rising “k0, detachment rate from actin at zero load” value:
1. B2  80 s⁻¹
2. B1  102 s⁻¹
3. B5  104 s⁻¹
4. B4  140 s⁻¹
5. B6  152 s⁻¹
6. B3  155 s⁻¹
